T1: human IL2Ra (human, UniProt P01589 22-240, limits assumed)
T1 construct: bought protein, coated on the plate; also called hIL2RA; IL-2 receptor alpha
T1 sequence (looked up): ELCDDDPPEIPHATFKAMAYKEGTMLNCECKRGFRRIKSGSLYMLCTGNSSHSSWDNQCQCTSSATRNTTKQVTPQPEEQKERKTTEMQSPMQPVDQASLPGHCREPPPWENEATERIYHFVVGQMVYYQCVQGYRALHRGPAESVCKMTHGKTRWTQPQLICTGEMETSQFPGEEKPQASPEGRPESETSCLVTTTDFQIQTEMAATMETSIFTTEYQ

T2: murine IL-11 (mouse, UniProt P47873 22-199)
T2 sequence: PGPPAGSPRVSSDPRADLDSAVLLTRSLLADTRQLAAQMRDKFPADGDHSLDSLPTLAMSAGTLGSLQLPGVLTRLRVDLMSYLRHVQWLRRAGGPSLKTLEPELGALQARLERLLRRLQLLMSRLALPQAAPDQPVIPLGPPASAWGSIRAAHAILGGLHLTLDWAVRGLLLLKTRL

T3: human IL-11 (human, UniProt P20809 22-199)
T3 sequence: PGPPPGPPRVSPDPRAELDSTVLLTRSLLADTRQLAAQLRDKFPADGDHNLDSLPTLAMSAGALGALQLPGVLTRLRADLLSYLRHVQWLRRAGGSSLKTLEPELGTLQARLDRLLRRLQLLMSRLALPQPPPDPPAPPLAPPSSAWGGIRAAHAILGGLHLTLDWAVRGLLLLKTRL


Key:
human IL2Ra = biological target: T1, human IL2Ra; test: IL2Ra direct binding ELISA, signal ratio to isotype control
Procedure: IL2RA (Peprotech, Germany, #200-02RC) was coated at 1 or 0 μg/ml (buffer only control) in 30 μl coating buffer (Candor, #113500) per well on a 384 well microtiter plate (Maxisorb, Nunc, #460518) over night at 4-8° C. After two washes with 50 μl/well washing buffer (PBS+0.05% Tween, pH 7.4), the plates were incubated for two hours at room temperature with 50 μl/well SmartBlock (Candor, #113500). After blocking, the plates were washed three times with washing buffer. Then, a dilution series of the respective antibody (1E-7 [M] down to 2E-13 [M]) in PBS+0.05% Tween, 10% SmartBlock were added in 30 μl to the microtiter plate and incubated for 90 min at room temperature. After three additional washes, 30 μl anti mouse IgG HRP-conjugated antibody (Biotechne, HAF007), diluted 1:1000 in PBS+0.05% Tween (pH 7.4), were added per well and incubated for one hour. After three additional washes, a mixture of Amplex red (Invitrogen, #12222, 10 mM stock solution in DMSO) 1:1000 diluted in PBS and H2O2 (30%, Merck, #107209)) diluted 1:10000 in PBS were added as substrate with 30 μl per well and incubated for 20 min in the dark. Relative fluorescence was measured with a microtiter plate reader at 535/590 nm.
Next, the 42 antibodies were subjected to an IL2Ra binding ELISA as described in Example 20.

murine IL-11 = biological target: T2, murine IL-11; test: cell-based or functional assay
human IL-11 = biological target: T3, human IL-11; test: cell-based or functional assay

Row | hIL2RA ELISA Binding: Ratio to Isotpye (human IL2Ra) | RGA Efficacy (%) (murine IL-11) | RGA IC50 (murine IL-11) | RGA Efficacy (%) (human IL-11) | RGA IC50 (human IL-11) | Binder
1 | 474 ratio | 96.3% | 1.5 nM | 62.9% | 4.1 nM | TPP-26298 (antibody, V domains shown) VH: EVQLLESGGGLVQPGGSLRLSCAASGFTFSSYGMHWVRQAPGKGLEWVSVISYDGSYKYYADSVKGRFTISRDNSKNTLYLQMNSLRAEDTAVYYCAAGVPDYWGQGTLVTVSS VL: QSVLTQPPSASGTPGQRVTISCLGSSSNIGAGYDVHWYQQLPGTAPKLLIYSNNERPSGVPDRFSGSKSGTSASLAISGLRSEDEADYYCAAWDDSLNGPVFGGGTKLTVL
2 | 96 ratio | 96.9% | 0.94 nM | 70.1% | 3.1 nM | TPP-26299 (antibody, V domains shown) VH: EVQLLESGGGLVQPGGSLRLSCAASGFTFSSYGMHWVRQAPGKGLEWVSVISYDGSYKYYADSVKGRFTISRDNSKNTLYLQMNSLRAEDTAVYYCAAGVPDYWGQGTLVTVSS VL: QSVLTQPPSASGTPGQRVTISCTGSSSNIGAGYDVHWYQQLPGTAPKLLIYSNNERPSGVPDRFSGSKSGTSASLAISGLRSEDEADYYCAAWDDSLYGPVFGGGTKLTVL
3 | 522 ratio | 94.3% | 1.1 nM | 65.8% | 22 nM | TPP-26302 (antibody, V domains shown) VH: EVQLLESGGGLVQPGGSLRLSCAASGFTFSSYGMHWVRQAPGKGLEWVSVISYDGSYKYYADSVKGRFTISRDNSKNTLYLQMNSLRAEDTAVYYCAAGVPDYWGQGTLVTVSS VL: QSVLTQPPSASGTPGQRVTISCTGSSSNIGAGYDVHWYQQLPGTAPKLLIYSNNERPSGVPDRFSGSKSGTSASLAISGLRSEDEADYYCSAWDDSLNGPVFGGGTKLTVL
4 | 447 ratio | 94.9% | 1.1 nM | 75.5% | 3.3 nM | TPP-26300 (antibody, V domains shown) VH: EVQLLESGGGLVQPGGSLRLSCAASGFTFSSYGMHWVRQAPGKGLEWVSVISYDGSYKYYADSVKGRFTISRDNSKNTLYLQMNSLRAEDTAVYYCAAGVPDYWGQGTLVTVSS VL: QSVLTQPPSASGTPGQRVTISCTGSSSNIGAGYDVHWYQQLPGTAPKLLIYSNNERPSGVPDRFSGSKSGTSASLAISGLRSEDEADYYCAAWDSSLNGPVFGGGTKLTVL
5 | 481 ratio | 95.7% | 2.3 nM | 70.2% | 22 nM | TPP-26303 (antibody, V domains shown) VH: EVQLLESGGGLVQPGGSLRLSCAASGFTFSSYGMHWVRQAPGKGLEWVSVISYDGSYKYYADSVKGRFTISRDNSKNTLYLQMNSLRAEDTAVYYCAAGVPDYWGQGTLVTVSS VL: QSVLTQPPSASGTPGQRVTISCTGSSSNIGAGYDVHWYQQLPGTAPKLLIYSNNERPEGVPDRFSGSKSGTSASLAISGLRSEDEADYYCAAWDDSLNGPVFGGGTKLTVL
6 | 232 ratio | 96.4% | 1.5 nM | 70% | 2.2 nM | TPP-26306 (antibody, V domains shown) VH: EVQLLESGGGLVQPGGSLRLSCAASGFTFSSYGMHWVRQAPGKGLEWVSVISYDGSYKYYADSVKGRFTISRDNSKNTLYLQMNSLRAEDTAVYYCAAGVPDYWGQGTLVTVSS VL: QSVLTQPPSASGTPGQRVTISCTGSSSNIGAGYDVHWYQQLPGTAPKLLIYSNNERPSGVPDRFSGSKSGTSASLAISGLRSEDEADYYCAAWDQSLNGPVFGGGTKLTVL
7 | 436 ratio | 95.2% | 1.2 nM | 70.4% | 5.9 nM | TPP-26304 (antibody, V domains shown) VH: EVQLLESGGGLVQPGGSLRLSCAASGFTFSSYGMHWVRQAPGKGLEWVSVISYDGSYKYYADSVKGRFTISRDNSKNTLYLQMNSLRAEDTAVYYCAAGVPDYWGQGTLVTVSS VL: QSVLTQPPSASGTPGQRVTISCTGSSSNIWAGYDVHWYQQLPGTAPKLLIYSNNERPSGVPDRFSGSKSGTSASLAISGLRSEDEADYYCAAWDDSLNGPVFGGGTKLTVL
